How the values were obtained:
Assay in all cases: holdup assay
Set-up in all cases: key: below the threshold = too weak to quantify, mostly under pKd 3.1 to 4
Details in all cases: plain residues with an end cap or a label only (N-terminal biotin on a linker: ado-ado)
[1] = target: MAGI2_3, Q86UL8
[2] = target: GOPC, Q9HD26
[3] = target: ARHGEF12, Q9NZN5-2
[4] = target: Inadl_8, Q8NI35
[5] = target: FRMPD2_1, Q68DX3
[6] = target: GRIP2_3, Q9C0E4
[7] = target: T1, NHERF3_3, Q5T2W1
T1 sequence (Q5T2W1 238-333, limits assumed, looked up): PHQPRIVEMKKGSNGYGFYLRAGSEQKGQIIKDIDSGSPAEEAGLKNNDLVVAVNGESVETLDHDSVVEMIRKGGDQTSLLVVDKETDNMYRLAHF

[8] = target: Inadl_4, Q8NI35
[9] = target: T2, SNTA1, Q13424
T2 sequence (Q13424 82-180, limits assumed, looked up): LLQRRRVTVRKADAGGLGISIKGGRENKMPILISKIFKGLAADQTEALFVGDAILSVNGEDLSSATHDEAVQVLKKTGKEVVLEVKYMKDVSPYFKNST

[10] = target: Inadl_6, Q8NI35
[11] = target: DLG2_2, Q15700
[12] = target: T3, APBA1_2, Q02410
T3 sequence (Q02410 742-832, limits assumed, looked up): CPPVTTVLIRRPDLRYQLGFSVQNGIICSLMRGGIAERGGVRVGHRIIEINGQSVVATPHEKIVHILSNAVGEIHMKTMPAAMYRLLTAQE

[13] = target: Inadl_10, Q8NI35
[14] = target: DLG4_3, P78352
[15] = target: Inadl_1, Q8NI35
[16] = target: MAGI1_2, Q96QZ7
[17] = target: NHERF4_4, Q86UT5
[18] = target: MAST2, Q6P0Q8
[19] = target: DLG1_1, Q12959
[20] = target: MAGI3_2, Q5TCQ9
[21] = target: PARD3_3, Q8TEW0
[22] = target: T4, HTRA3, P83110
T4 sequence (P83110 354-453, limits assumed, looked up): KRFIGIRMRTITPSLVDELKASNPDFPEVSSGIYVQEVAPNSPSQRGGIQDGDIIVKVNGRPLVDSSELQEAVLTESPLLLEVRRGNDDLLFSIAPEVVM

[23] = target: T5, LIN7C, Q9NUP9
T5 sequence (Q9NUP9 88-185, limits assumed, looked up): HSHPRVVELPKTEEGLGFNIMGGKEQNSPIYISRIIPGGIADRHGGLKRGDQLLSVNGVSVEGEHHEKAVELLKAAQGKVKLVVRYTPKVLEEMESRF

[24] = target: T6, RHPN1, Q8TCX5
T6 sequence (Q8TCX5 508-602, limits assumed, looked up): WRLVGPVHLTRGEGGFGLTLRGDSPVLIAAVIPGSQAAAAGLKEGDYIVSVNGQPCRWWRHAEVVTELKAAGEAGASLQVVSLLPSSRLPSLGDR

[25] = target: GORASP1, Q9BQQ3
[26] = target: T7, LIN7B, Q9HAP6
T7 sequence (Q9HAP6 88-185, limits assumed, looked up): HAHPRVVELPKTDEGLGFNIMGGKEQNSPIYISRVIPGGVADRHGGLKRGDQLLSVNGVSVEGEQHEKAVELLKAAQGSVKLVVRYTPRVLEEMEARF

[27] = target: T8, DLG3_3, Q92796
T8 sequence (Q92796 374-475, limits assumed, looked up): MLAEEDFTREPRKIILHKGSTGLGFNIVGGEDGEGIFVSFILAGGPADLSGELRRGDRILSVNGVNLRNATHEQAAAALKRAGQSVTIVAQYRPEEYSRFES

[28] = target: LNX1_2, Q8TBB1
[29] = target: FRMPD3, Q5JV73
[30] = target: FRMPD2_2, Q68DX3
[31] = target: LNX1_3, Q8TBB1
LNX1_3, Q8TBB1, sequence (Q8TBB1 500-596): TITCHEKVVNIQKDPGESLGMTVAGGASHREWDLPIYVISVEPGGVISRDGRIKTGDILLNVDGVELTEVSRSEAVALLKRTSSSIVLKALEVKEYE

FRMPD2_1, Q68DX3, sequence (Q68DX3 770-861): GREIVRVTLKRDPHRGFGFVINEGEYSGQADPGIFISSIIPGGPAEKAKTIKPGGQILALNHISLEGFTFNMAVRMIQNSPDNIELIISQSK
Inadl_8, Q8NI35, sequence (Q8NI35 1425-1530): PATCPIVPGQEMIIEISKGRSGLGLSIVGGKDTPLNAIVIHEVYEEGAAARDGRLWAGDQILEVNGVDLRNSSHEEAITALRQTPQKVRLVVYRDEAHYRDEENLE
FRMPD2_2, Q68DX3, sequence (Q68DX3 944-1038): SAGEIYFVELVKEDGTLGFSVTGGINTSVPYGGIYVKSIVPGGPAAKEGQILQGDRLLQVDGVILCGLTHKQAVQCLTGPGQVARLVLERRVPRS
NHERF4_4, Q86UT5, sequence (Q86UT5 464-550): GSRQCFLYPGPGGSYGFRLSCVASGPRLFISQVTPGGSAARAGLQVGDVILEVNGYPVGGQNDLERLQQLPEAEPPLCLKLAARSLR
MAGI1_2, Q96QZ7, sequence (Q96QZ7 456-580): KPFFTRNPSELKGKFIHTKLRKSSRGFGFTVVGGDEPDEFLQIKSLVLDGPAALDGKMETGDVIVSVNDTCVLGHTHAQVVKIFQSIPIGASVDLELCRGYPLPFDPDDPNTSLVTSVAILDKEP
FRMPD3, Q5JV73, sequence (Q5JV73 12-100): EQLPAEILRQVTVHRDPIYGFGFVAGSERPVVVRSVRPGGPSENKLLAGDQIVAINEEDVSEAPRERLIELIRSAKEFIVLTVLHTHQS
Inadl_1, Q8NI35, sequence (Q8NI35 113-229): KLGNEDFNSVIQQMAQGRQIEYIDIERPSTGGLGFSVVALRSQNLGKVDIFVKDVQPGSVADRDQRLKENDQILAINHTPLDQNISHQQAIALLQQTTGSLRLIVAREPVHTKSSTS
Inadl_6, Q8NI35, sequence (Q8NI35 1058-1167): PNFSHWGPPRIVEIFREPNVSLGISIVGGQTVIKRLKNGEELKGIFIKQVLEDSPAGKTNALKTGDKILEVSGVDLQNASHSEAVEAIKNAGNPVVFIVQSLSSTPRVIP
MAGI3_2, Q5TCQ9, sequence (Q5TCQ9 398-503): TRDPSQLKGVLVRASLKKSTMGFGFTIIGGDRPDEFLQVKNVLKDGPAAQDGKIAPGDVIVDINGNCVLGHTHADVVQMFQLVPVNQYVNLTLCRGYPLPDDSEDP
PARD3_3, Q8TEW0, sequence (Q8TEW0 582-685): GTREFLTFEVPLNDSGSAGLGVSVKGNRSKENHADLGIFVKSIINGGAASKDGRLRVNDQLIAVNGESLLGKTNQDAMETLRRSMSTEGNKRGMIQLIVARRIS
MAGI2_3, Q86UL8, sequence (Q86UL8 600-682): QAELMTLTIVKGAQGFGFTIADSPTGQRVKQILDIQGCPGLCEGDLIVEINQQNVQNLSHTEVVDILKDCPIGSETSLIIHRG
MAST2, Q6P0Q8, sequence (Q6P0Q8 1099-1202): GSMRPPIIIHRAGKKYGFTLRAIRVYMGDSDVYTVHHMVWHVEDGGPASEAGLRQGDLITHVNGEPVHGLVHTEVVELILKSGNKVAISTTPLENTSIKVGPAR
Inadl_10, Q8NI35, sequence (Q8NI35 1673-1763): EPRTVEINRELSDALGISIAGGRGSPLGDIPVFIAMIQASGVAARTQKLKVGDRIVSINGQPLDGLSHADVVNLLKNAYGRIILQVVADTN
ARHGEF12, Q9NZN5-2, sequence (Q9NZN5 other isoform, or with tags, fused parts or gaps): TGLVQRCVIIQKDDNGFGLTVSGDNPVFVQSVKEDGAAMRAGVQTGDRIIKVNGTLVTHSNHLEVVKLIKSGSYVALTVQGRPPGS
Inadl_4, Q8NI35, sequence (Q8NI35 547-651): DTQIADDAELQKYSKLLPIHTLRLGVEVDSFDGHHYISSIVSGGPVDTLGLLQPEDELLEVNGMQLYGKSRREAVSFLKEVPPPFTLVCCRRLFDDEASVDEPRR
GRIP2_3, Q9C0E4, sequence (Q9C0E4 238-339): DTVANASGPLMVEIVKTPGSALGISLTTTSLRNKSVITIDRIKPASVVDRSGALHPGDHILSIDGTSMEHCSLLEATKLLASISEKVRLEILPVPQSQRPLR
GORASP1, Q9BQQ3, sequence (Q9BQQ3 1-208): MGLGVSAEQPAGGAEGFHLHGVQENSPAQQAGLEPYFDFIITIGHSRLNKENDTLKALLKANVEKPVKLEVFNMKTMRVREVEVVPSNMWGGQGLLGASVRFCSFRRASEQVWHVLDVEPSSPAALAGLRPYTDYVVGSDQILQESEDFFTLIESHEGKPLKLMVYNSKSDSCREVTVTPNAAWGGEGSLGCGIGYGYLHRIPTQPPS
LNX1_2, Q8TBB1, sequence (Q8TBB1 371-470): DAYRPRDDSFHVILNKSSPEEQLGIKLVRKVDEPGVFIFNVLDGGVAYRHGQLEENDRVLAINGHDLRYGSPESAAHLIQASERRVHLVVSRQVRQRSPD
DLG4_3, P78352, sequence (P78352 306-403): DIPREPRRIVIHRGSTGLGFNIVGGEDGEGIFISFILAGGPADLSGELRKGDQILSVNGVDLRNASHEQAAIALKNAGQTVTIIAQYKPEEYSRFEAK
DLG2_2, Q15700, sequence (Q15700 189-283): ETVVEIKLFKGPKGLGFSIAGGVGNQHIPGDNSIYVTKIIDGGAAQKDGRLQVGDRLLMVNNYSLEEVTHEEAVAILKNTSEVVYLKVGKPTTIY

B1: LRRC4, Q9HBW1 (peptide)
chain: TKDKVQETQI
pKd [1]: 3.96
pKd [2]: 4.47
pKd [3]: 4.57
pKd [4]: 3.5
pKd [5]: below the threshold
pKd [6]: below the threshold
pKd [7]: below the threshold
pKd [8]: below the threshold
pKd [9]: 4.88
pKd [10]: 3.85
pKd [11]: 4.67
pKd [12]: 3.55
pKd [13]: below the threshold
pKd [14]: 4.17
pKd [15]: below the threshold
pKd [16]: below the threshold
pKd [17]: 3.95
pKd [18]: 5.52
pKd [19]: 4.42
pKd [20]: 4.87
pKd [21]: 3.81
pKd [22]: below the threshold
pKd [23]: 3.98
pKd [24]: 4.84
pKd [25]: below the threshold
pKd [26]: 3.74
pKd [27]: 3.98
pKd [28]: below the threshold
pKd [29]: below the threshold
pKd [30]: 3.82
pKd [31]: below the threshold

B2: NEB, P20929 (peptide)
chain: MLPANYVEAI
pKd [1]: below the threshold
pKd [2]: below the threshold
pKd [3]: below the threshold
pKd [4]: below the threshold
pKd [5]: below the threshold
pKd [6]: below the threshold
pKd [7]: below the threshold
pKd [8]: below the threshold
pKd [9]: below the threshold
pKd [10]: below the threshold
pKd [11]: below the threshold
pKd [12]: below the threshold
pKd [13]: below the threshold
pKd [14]: below the threshold
pKd [15]: below the threshold
pKd [16]: below the threshold
pKd [17]: below the threshold
pKd [18]: below the threshold
pKd [19]: below the threshold
pKd [20]: below the threshold
pKd [21]: below the threshold
pKd [22]: below the threshold
pKd [23]: below the threshold
pKd [24]: below the threshold
pKd [25]: 3.7
pKd [26]: 3.69
pKd [27]: below the threshold
pKd [28]: below the threshold
pKd [29]: below the threshold
pKd [30]: below the threshold
pKd [31]: below the threshold

B3: SLCO2B1, O94956 (peptide)
chain: PGKKPEDSRV
pKd [1]: below the threshold
pKd [2]: below the threshold
pKd [3]: below the threshold
pKd [4]: below the threshold
pKd [5]: below the threshold
pKd [6]: below the threshold
pKd [7]: below the threshold
pKd [8]: below the threshold
pKd [9]: 3.97
pKd [10]: below the threshold
pKd [11]: 3.5
pKd [12]: below the threshold
pKd [13]: below the threshold
pKd [14]: below the threshold
pKd [15]: below the threshold
pKd [16]: below the threshold
pKd [17]: below the threshold
pKd [18]: 4.27
pKd [19]: 3.62
pKd [20]: 3.54
pKd [21]: below the threshold
pKd [22]: below the threshold
pKd [23]: below the threshold
pKd [24]: 3.85
pKd [25]: below the threshold
pKd [26]: below the threshold
pKd [27]: below the threshold
pKd [28]: below the threshold
pKd [29]: below the threshold
pKd [30]: below the threshold
pKd [31]: below the threshold
